Results reported in IntAct's records for PubMed 27427983.

B1: Non-structural maintenance of chromosomes element 3 homolog (Homo sapiens), Q96MG7 (parent)
chain: MLQKPRNRGRSGGQAERDRDWSHSGNPGASRAGEDARVLRDGFAEEAPSTSRGPGGSQGSQGPSPQGARRAQAAPAVGPRSQKQLELKVSELVQFLLIKDQKKIPIKRADILKHVIGDYKDIFPDLFKRAAERLQYVFGYKLVELEPKSNTYILINTLEPVEEDAEMRGDQGTPTTGLLMIVLGLIFMKGNTIKETEAWDFLRRLGVYPTKKHLIFGDPKKLITEDFVRQRYLEYRRIPHTDPVDYEFQWGPRTNLETSKMKVLKFVAKVHNQDPKDWPAQYCEALADEENRARPQPSGPAPSS
partner: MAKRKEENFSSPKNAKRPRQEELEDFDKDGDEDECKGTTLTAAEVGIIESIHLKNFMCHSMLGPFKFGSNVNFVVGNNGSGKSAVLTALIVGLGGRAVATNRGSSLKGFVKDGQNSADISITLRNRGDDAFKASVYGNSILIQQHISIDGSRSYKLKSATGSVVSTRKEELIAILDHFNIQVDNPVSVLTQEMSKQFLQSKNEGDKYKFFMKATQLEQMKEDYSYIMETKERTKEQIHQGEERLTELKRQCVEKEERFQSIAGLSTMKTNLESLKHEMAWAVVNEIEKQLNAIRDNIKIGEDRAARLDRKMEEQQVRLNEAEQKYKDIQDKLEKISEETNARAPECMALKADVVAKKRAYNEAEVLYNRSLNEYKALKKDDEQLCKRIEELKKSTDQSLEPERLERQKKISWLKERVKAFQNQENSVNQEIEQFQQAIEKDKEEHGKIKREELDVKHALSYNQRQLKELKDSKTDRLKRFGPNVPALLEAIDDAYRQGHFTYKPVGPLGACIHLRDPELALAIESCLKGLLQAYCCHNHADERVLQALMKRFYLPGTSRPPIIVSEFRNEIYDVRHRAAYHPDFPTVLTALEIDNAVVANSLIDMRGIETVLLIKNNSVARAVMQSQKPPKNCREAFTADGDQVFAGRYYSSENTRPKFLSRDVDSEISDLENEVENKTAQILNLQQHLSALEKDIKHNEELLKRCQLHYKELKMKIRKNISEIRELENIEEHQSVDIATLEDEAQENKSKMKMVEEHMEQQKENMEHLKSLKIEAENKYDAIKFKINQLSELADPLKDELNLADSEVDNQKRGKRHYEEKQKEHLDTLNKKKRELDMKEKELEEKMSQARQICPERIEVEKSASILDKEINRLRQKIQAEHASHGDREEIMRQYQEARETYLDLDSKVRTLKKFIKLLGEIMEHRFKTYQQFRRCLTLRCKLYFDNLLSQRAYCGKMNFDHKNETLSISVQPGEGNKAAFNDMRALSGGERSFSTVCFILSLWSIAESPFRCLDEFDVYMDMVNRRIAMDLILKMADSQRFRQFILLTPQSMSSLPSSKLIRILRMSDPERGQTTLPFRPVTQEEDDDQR
B2: Non-structural maintenance of chromosomes element 3 homolog (Homo sapiens), Q96MG7 (parent)
chain: B1 chain
partner: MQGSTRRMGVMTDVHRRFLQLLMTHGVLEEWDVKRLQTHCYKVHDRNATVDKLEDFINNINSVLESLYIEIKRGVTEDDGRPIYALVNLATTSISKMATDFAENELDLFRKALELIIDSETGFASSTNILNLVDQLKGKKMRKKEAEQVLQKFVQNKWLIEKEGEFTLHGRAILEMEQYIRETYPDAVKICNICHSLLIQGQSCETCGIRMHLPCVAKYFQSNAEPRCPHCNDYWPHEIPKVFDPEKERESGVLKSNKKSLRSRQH
B3: Non-structural maintenance of chromosomes element 3 homolog (Homo sapiens), Q96MG7 (parent)
chain: B1 chain
partner: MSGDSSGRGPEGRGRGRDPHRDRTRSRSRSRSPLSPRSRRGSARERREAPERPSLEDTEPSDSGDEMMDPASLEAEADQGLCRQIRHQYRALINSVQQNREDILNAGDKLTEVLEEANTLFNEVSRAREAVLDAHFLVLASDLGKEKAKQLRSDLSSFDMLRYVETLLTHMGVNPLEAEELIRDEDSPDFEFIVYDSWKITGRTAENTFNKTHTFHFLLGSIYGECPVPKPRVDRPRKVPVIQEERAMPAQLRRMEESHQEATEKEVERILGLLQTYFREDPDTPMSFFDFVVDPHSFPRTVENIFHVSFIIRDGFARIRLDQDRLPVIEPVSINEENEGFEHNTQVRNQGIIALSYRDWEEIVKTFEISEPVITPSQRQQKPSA

Variants of: B1
Conditions: with smc6_human SMC6, Q96SB8

effect of a mutation on the interaction | Variant
disrupting interaction strength | MLQKPRNRGRSGGQAERDRDWSHSGNPGASRAGEDARVLRDGFAEEAPSTSRGPGGSQGSQGPSPQGARRAQAAPAVGPRSQKQLELKVSELVQFLLIKDQKKIPIKRADILKHVIGDYKDIFPDLFKRAAERLQYVFGYKLVELEPKSNTYILINTLEPVEEDAEMRGDQGTPTTGLLMIVLGLIFMKGNTIKETEAWDFLRRLGVYPTKKHLIFGDPKKLITEDFVRQRYLEYRRIPHTDPVDYEFQWGPRTNLETSKMKVFKFVAKVHNQDPKDWPAQYCEALADEENRARPQPSGPAPSS [L264F]

Variants of: B2
Conditions: with nse1_human NSMCE1, Q8WV22

Variant | effect of a mutation on the interaction
MLQKPRNRGRSGGQAERDRDWSHSGNPGASRAGEDARVLRDGFAEEAPSTSRGPGGSQGSQGPSPQGARRAQAAPAVGPRSQKQLELKVSELVQFLLIKDQKKIPIKRADILKHVIGDYKDIFPDLFKRAAERLQYVFGYKLVELEPKSNTYILINTLEPVEEDAEMRGDQGTPTTGLLMIVLGLIFMKGNTIKETEAWDFLRRLGVYPTKKHLIFGDPKKLITEDFVRQRYLEYRRIPHTDPVDYEFQWGPRTNLETSKMKVLKAVAKVHNQDPKDWPAQYCEALADEENRARPQPSGPAPSS [F266A] | with no effect
MLQKPRNRGRSGGQAERDRDWSHSGNPGASRAGEDARVLRDGFAEEAPSTSRGPGGSQGSQGPSPQGARRAQAAPAVGPRSQKQLELKVSELVQFLLIKDQKKIPIKRADILKHVIGDYKDIFPDLFKRAAERLQYVFGYKLVELEPKSNTYILINTLEPVEEDAEMRGDQGTPTTGLLMIVLGLIFMKGNTIKETEAWDFLRRLGVYPTKKHLIFGDPKKLITEDFVRQRYLEYRRIPHTDPVDYEFQWGPRTNLETSKMKVFKFVAKVHNQDPKDWPAQYCEALADEENRARPQPSGPAPSS [L264F] | with no effect

Now from value to variant:

effect of a mutation on the interaction | Variant
disrupting interaction strength | MLQKPRNRGRSGGQAERDRDWSHSGNPGASRAGEDARVLRDGFAEEAPSTSRGPGGSQGSQGPSPQGARRAQAAPAVGPRSQKQLELKVSELVQFLAIKDQKKIPIKRADILKHVIGDYKDIFPDLFKRAAERLQYVFGYKLVELEPKSNTYILINTLEPVEEDAEMRGDQGTPTTGLLMIVLGLIFMKGNTIKETEAWDFLRRLGVYPTKKHLIFGDPKKLITEDFVRQRYLEYRRIPHTDPVDYEFQWGPRTNLETSKMKVLKFVAKVHNQDPKDWPAQYCEALADEENRARPQPSGPAPSS [L97A]
decreasing interaction strength | MLQKPRNRGRSGGQAERDRDWSHSGNPGASRAGEDARVLRDGFAEEAPSTSRGPGGSQGSQGPSPQGARRAQAAPAVGPRSQKQLELKVSELVQFLLIKDQKKIPIKRADILKHVIGDYKDIFPDLFKRAAERLQYVFGYKLVELEPKSNTYILINTLEPVEEDAEMRGDQGTPTTGLLMIVLGLIFMKGNTIKETEAWDFLRRLGVYLTKKHLIFGDPKKLITEDFVRQRYLEYRRIPHTDPVDYEFQWGPRTNLETSKMKVLKFVAKVHNQDPKDWPAQYCEALADEENRARPQPSGPAPSS [P209L]

Variants of: B2
Conditions: with nse1_human NSMCE1, Q8WV22
Remark: another data set of the same source

effect of a mutation on the interaction | Variant
decreasing interaction strength | MLQKPRNRGRSGGQAERDRDWSHSGNPGASRAGEDARVLRDGFAEEAPSTSRGPGGSQGSQGPSPQGARRAQAAPAVGPRSQKQLELKVSELVQFLLIKDQKKIPIKRADILKHVIGDYKDIFPDLFKRAAERLQYVFGYKLVELEPKSNTYILINTLEPVEEDAEMRGDQGTPTTGLLMIVLGLIFMKGNTIKETEAWDFLRRLGVYPTKKHLIFGDPKKLITEDFVRQRYLEYRRIPHTDPVDYEFQWGPRTNLETSKMKVFKFVAKVHNQDPKDWPAQYCEALADEENRARPQPSGPAPSS [L264F]

Variants of: B3
Conditions: with nse4a_human NSMCE4A

Variant | effect of a mutation on the interaction
MLQKPRNRGRSGGQAERDRDWSHSGNPGASRAGEDARVLRDGFAEEAPSTSRGPGGSQGSQGPSPQGARRAQAAPAVGPRSQKQLELKVSELVQFLAIKDQKKIPIKRADILKHVIGDYKDIFPDLFKRAAERLQYVFGYKLVELEPKSNTYILINTLEPVEEDAEMRGDQGTPTTGLLMIVLGLIFMKGNTIKETEAWDFLRRLGVYPTKKHLIFGDPKKLITEDFVRQRYLEYRRIPHTDPVDYEFQWGPRTNLETSKMKVLKFVAKVHNQDPKDWPAQYCEALADEENRARPQPSGPAPSS [L97A] | with no effect
MLQKPRNRGRSGGQAERDRDWSHSGNPGASRAGEDARVLRDGFAEEAPSTSRGPGGSQGSQGPSPQGARRAQAAPAVGPRSQKQLELKVSELVQFLLIKDQKKIPIKRADILKHVIGDYKDIFPDLFKRAAERLQYVFGYKLVELEPKSNTYILINTLEPVEEDAEMRGDQGTPTTGLLMIVLGLIFMKGNTIKETEAWDFLRRLGVYPTKKHLIFGDPKKLITEDFVRQRYLEYRRIPHTDPVDYEFQWGPRTNLETSKMKVLKAVAKVHNQDPKDWPAQYCEALADEENRARPQPSGPAPSS [F266A] | disrupting interaction strength

Second part, the variant after the results:

effect of a mutation on the interaction | Variant
disrupting interaction strength | MLQKPRNRGRSGGQAERDRDWSHSGNPGASRAGEDARVLRDGFAEEAPSTSRGPGGSQGSQGPSPQGARRAQAAPAVGPRSQKQLELKVSELVQFLLIKDQKKIPIKRADILKHVIGDYKDIFPDLFKRAAERLQYVFGYKLVELEPKSNTYILINTLEPVEEDAEMRGDQGTPTTGLLMIVLGLIFMKGNTIKETEAWDFLRRLGVYPTKKHLIFGDPKKLITEDFVRQRYLEYRRIPHTDPVDYEFQWGPRTNLETSKMKVFKFVAKVHNQDPKDWPAQYCEALADEENRARPQPSGPAPSS [L264F]
disrupting interaction strength | MLQKPRNRGRSGGQAERDRDWSHSGNPGASRAGEDARVLRDGFAEEAPSTSRGPGGSQGSQGPSPQGARRAQAAPAVGPRSQKQLELKVSELVQFLLIKDQKKIPIKRADILKHVIGDYKDIFPDLFKRAAERLQYVFGYKLVELEPKSNTYILINTLEPVEEDAEMRGDQGTPTTGLLMIVLGLIFMKGNTIKETEAWDFLRRLGVYLTKKHLIFGDPKKLITEDFVRQRYLEYRRIPHTDPVDYEFQWGPRTNLETSKMKVLKFVAKVHNQDPKDWPAQYCEALADEENRARPQPSGPAPSS [P209L]
